# Data from patent CN113388031A (SHANGHAI INSTITUTE FOR ADVANCED STUDY OF ZHEJIANG UNIV, dated 2021).
# B1: 单克隆抗体35B5 (monoclonal antibody 35B5) (antibody, V domains shown, not shown: large carriers)
# VH: QVQLLESGGGLVQPGRSLRLSCAASGFTFDDYAMHWVRQAPGKGLEWVSGVSWNSGTIGYADSVKGRFTISRDNAKNSLYLHMRSLRAEDTALYYCAKAVEMVRGLMGLGADPEYGMDVWGQGTTVTVSS
# VL: not shown
# Key:
# [1] = target: SARS-CoV-2突变株D614G S蛋白 (spike protein of the D614G mutant strain, on live virus) (SARS-CoV-2 D614G mutant strain, UniProt P0DTC2 14-1273); experiment: cell-based or functional assay
# [2] = target: SARS-CoV-2突变株501Y.V2 (B.1.351) S蛋白 (spike protein of 501Y.V2, on live virus) (SARS-CoV-2 501Y.V2 (B.1.351), UniProt P0DTC2 14-1273); experiment: cell-based or functional assay
binder,measurement,setting,value
B1,"IC50, live SARS-CoV-2 neutralisation on Vero E6 cells (plaque / focus assay)",[1],0.00728 µg/mL
same,"IC50, live SARS-CoV-2 neutralisation on Vero E6 cells (plaque / focus assay)",[2],0.013 µg/mL
